Data taken from patent US20250066499A1 (SUNSHINE GUOJIAN PHARMACEUTICAL SHANGHAI, published 2025).

Key:
[1] = target: T1, CD73-ND-his (human, UniProt P21589 27-317); assay: ELISA; decline multiple of Top against CD73-ND
T1 construct: Biotinylated and captured on streptavidin in the ELISA
T1 sequence: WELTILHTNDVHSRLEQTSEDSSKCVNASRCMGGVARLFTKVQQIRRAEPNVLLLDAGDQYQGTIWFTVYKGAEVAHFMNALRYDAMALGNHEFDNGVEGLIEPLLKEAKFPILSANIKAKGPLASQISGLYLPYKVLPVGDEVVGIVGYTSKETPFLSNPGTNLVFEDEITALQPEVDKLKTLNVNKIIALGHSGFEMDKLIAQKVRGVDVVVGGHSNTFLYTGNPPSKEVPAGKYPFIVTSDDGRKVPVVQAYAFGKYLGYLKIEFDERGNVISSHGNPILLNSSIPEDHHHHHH
Description: (§1) The ELISA plates were coated with SA protein diluted to 1.5 μg/mL in coating buffer (50 mM carbonate coating buffer, pH 9.6) and incubated overnight at 4° C. The supernatant was discarded, and the plates were washed three times with PBST. Then, 5% skimmed milk powder prepared with PBS was added for blocking and the plates were incubated for 2 h at 37° C. After washing the plates once with PBST, CD73-biotin protein (prepared by biotinylating CD73-His protein according to the EZ-Link NHS-Biotin Reagent instructions) was diluted to 0.5 μg/mL and added at 100 μL/well for incubation at room temperature for 1 h. The plates were washed three times with PBST, and the prepared murine-derived monoclonal antibodies against human CD73 were serially diluted with 1% BSA buffer prepared with PBST and added to the ELISA plates at 100 μl/well. The plates were incubated at 37° C. for 1 h. After washing the plates three times with PBST, HRP-labeled goat anti-mouse IgG secondary antibody was added and the plates were incubated for 30 min at 37° C. After washing the plates three times with PBST, the residual droplets were patted dry on absorbent paper as much as possible. Then, 100 μl of TMB color developing solution was added to each well, and the plates were incubated in the dark at room temperature for 5 min for color development. Subsequently, 50 μl of 2M H₂SO₄ stop solution was added to each well to terminate the substrate reaction. The OD values were read at 450 nm using a multimode microplate reader to analyze the binding ability of the tested antibodies to the target antigen human CD73-His.
(§2) Referring to the experimental method in Example 3, the affinity of 48A11-HuV33 for various mutant proteins of CD73-ND was determined. The SA protein was diluted to 1 μg/mL for coating the ELISA plates, and the biotinylated CD73 protein (CD73-biotin) was used at a concentration of 0.1 μg/mL.

[2] = target: T2, CD73-ND-N187A (human, UniProt P21589 27-317); assay: ELISA; decline multiple of Top against CD73-ND
T2 construct: Alanine mutant of CD73-ND
T2 sequence: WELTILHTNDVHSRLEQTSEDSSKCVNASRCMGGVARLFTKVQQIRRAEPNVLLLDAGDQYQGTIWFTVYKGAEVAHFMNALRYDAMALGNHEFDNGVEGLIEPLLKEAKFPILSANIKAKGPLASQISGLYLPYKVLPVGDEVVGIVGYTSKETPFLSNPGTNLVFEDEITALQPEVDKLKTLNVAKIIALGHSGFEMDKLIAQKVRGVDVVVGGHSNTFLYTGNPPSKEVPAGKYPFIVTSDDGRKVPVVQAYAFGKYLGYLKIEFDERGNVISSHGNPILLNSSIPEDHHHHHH
Description: as §1, §2

[3] = target: T1, CD73-ND-his; assay: ELISA, high plateau value (OD 450 nm)
Description: as §1, §2

[4] = target: T3, CD73-ND-L138A (human, UniProt P21589 27-317); assay: ELISA, high plateau value (OD 450 nm)
T3 construct: Alanine mutant of CD73-ND
T3 sequence: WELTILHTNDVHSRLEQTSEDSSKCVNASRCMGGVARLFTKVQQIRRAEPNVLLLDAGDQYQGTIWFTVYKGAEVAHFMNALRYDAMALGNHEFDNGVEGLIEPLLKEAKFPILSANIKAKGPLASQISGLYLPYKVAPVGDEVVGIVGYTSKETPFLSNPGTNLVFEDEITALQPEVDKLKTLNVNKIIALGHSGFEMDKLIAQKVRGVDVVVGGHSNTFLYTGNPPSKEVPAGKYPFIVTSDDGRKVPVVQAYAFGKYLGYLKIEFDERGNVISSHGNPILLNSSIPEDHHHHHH
Description: as §1, §2

[5] = target: T4, CD73-ND-V137A (human, UniProt P21589 27-317); assay: ELISA, high plateau value (OD 450 nm)
T4 construct: Alanine mutant of CD73-ND
T4 sequence: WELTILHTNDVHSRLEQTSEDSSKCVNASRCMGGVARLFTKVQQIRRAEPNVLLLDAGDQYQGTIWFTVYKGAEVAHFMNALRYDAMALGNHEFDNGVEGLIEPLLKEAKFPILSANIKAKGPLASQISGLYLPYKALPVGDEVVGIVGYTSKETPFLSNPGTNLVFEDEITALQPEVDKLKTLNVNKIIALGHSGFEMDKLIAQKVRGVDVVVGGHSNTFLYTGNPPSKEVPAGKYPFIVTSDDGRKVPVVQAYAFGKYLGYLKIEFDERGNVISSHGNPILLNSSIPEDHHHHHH
Description: as §1, §2

[6] = target: T5, CD73-ND-K136A (human, UniProt P21589 27-317); assay: ELISA, high plateau value (OD 450 nm)
T5 construct: Alanine mutant of CD73-ND
T5 sequence: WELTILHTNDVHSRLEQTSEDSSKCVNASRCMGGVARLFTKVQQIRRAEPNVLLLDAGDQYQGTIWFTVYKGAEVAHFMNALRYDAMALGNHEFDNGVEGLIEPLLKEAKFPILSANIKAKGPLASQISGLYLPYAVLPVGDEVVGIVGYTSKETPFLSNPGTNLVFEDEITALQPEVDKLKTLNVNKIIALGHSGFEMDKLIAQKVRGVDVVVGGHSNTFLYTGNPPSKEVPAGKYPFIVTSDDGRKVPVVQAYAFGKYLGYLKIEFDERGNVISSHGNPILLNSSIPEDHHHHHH
Description: as §1, §2

[7] = target: T6, CD73-ND-Y135A (human, UniProt P21589 27-317); assay: ELISA, high plateau value (OD 450 nm)
T6 construct: Alanine mutant of CD73-ND
T6 sequence: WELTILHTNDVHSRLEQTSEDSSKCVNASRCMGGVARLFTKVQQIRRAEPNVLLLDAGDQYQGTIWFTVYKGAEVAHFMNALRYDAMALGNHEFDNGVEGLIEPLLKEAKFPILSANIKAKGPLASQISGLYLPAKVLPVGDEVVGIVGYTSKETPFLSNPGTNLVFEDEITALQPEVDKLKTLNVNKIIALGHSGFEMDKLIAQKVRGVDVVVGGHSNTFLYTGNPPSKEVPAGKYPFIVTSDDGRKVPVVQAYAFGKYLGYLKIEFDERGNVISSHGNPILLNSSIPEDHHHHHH
Description: as §1, §2

B1: 48A11-HuV33 (antibody, human IgG4, V domains shown)
VH: QVQLVQSGAEVKKPGASVKVSCKASGYTFTSYWMHWVRQAPGQGLEWIGEINPSIGRTNYNEKFKSRVTLTRDTSTSTAYMELSSLRSEDTAVYYCARRVYGTMDYWGQGTLVTVSS
VL: DIQMTQSPSSLSASVGDRVTITCKASQDINSYLSWFQQKPGKSPKLLIYRANIWVDGVPSRFSGSGSGQDYTFTISSLQPEDIATYYCLQYDELYTFGQGTKVEIK
notes: Humanized
Q: With B1 as the binder, how does the “Ratio(Top)” value [1] read?
A: Its value is 1 fold.

Q: What about the “Ratio(Top)” value [2] of the same binder?
A: Its value is 1.1 fold.

Q: And the Top [3]?
A: Its Top is 2.08.

Q: And the Top [4]?
A: The Top was 1.91.

Q: And the Top [5]?
A: Its Top is 1.6.

Q: What about the Top [6] of the same binder?
A: Its Top is 2.12.

Q: What about the Top [7] of the same binder?
A: The Top was 1.96.
